For data set [1], the system named is F2-Arg finger 3 Asp2Ala D2A in finger 3 (helix position 2) (Artificial Sequence). To be noted: phage ELISA; PBS, 50 uM ZnCl2, 20 C. (In an ELISA, binding on a coated surface is turned into a signal by an enzyme label.)
Data set [2] relates to Zif268 finger 3 Asp2Ala D2A in finger 3 (helix position 2). To be noted: phage ELISA; PBS, 50 uM ZnCl2, 20 C.

Consider 2 sequences from patent publication US20040253623.

On to “GCGGTGGCG (double strand) [F2-Arg consensus site]”, for which the binding signal (fold lower affinity than parent F2-Arg) in data set [1] amounted to 4. As for “GCGTGGGCG (double strand) [Zif268 consensus site]”, the binding signal (fold lower affinity than wild type) in data set [2] amounted to 4.
